Measured values published in the Immune Epitope Database (IEDB).
Blank lines part the entries; values can stand above or below the sequence they belong to.

Tests used:
[1] = target: HLA-B*15:03; experiment: IEDB peptide-MHC binding, purified MHC/competitive/radioactivity; filed as Kd, often an IC50 or EC50 that approximates it; ≥ and ≤ were set here for values at or beyond the usual limits of such assays
[2] = target: HLA-A*68:02; experiment: as above
[3] = target: HLA-A*02:02; experiment: as above
[4] = target: HLA-A*02:03; experiment: as above
[5] = target: HLA-A*02:06; experiment: as above
[6] = target: HLA-A*11:01; experiment: IEDB peptide-MHC binding, purified MHC/competitive/fluorescence; ≥ and ≤ were set here for values at or beyond the usual limits of such assays
[7] = target: HLA-A*03:01; experiment: as above
[8] = target: HLA-A*24:02; experiment: as above
[9] = target: HLA-A*26:01; experiment: IEDB peptide-MHC binding, purified MHC/competitive/radioactivity; filed as Kd, often an IC50 or EC50 that approximates it; ≥ and ≤ were set here for values at or beyond the usual limits of such assays
[10] = target: HLA-B*51:01; experiment: as above
[11] = target: HLA-B*35:01; experiment: as above
[12] = target: HLA-B*53:01; experiment: as above
[13] = target: HLA-B*07:02; experiment: as above
[14] = target: HLA-A*02:01; experiment: IEDB peptide-MHC binding, purified MHC/competitive/fluorescence; ≥ and ≤ were set here for values at or beyond the usual limits of such assays
[15] = target: HLA-A*24:03; experiment: IEDB peptide-MHC binding, purified MHC/direct/fluorescence; filed as Kd, often an IC50 or EC50 that approximates it; ≥ and ≤ were set here for values at or beyond the usual limits of such assays; settings: source organism: Salmonella enterica
[16] = target: HLA-A*30:02; experiment: IEDB peptide-MHC binding, purified MHC/competitive/radioactivity; filed as Kd, often an IC50 or EC50 that approximates it; ≥ and ≤ were set here for values at or beyond the usual limits of such assays; settings: source organism: Dengue virus 3 Martinique/1243/1999
[17] = target: HLA-B*57:01; experiment: as above
[18] = target: HLA-B*08:01; experiment: as above
[19] = target: HLA-B*15:01; experiment: as above
[20] = target: HLA-A*32:01; experiment: as above
[21] = target: HLA-A*30:01; experiment: as above
[22] = target: HLA-A*33:01; experiment: as above; settings: source organism: Vaccinia virus WR
[23] = target: HLA-A*68:01; experiment: as above; settings: source organism: Vaccinia virus WR
[24] = target: HLA-A*31:01; experiment: as above; settings: source organism: Vaccinia virus WR
[25] = target: HLA-A*02:01; experiment: as above
[26] = target: HLA-B*51:01; experiment: IEDB peptide-MHC binding, purified MHC/competitive/fluorescence; filed as Kd, often an IC50 or EC50 that approximates it; ≥ and ≤ were set here for values at or beyond the usual limits of such assays; settings: source organism: West Nile virus
[27] = target: HLA-B*58:01; experiment: IEDB peptide-MHC binding, purified MHC/direct/fluorescence; filed as Kd, often an IC50 or EC50 that approximates it; ≥ and ≤ were set here for values at or beyond the usual limits of such assays; settings: source organism: Entamoeba histolytica HM-1:IMSS
[28] = target: HLA-B*57:01; experiment: as above; settings: source organism: Entamoeba histolytica HM-1:IMSS
[29] = source organism: Vaccinia virus WR
[30] = source organism: Lymphocytic choriomeningitis virus (strain Armstrong) (clone 53b)
[31] = source organism: Zaire ebolavirus
[32] = source organism: Dengue virus 2 Jamaica/1409/1983
[33] = source organism: Dengue virus 3 Martinique/1243/1999
[34] = source organism: Dengue virus 1 Brazil/97-11/1997
[35] = source organism: Vaccinia virus
[36] = source organism: Lassa virus GA391
[37] = source organism: Dengue virus 2 Peru/IQT2913/1996
[38] = source organism: Vaccinia virus Copenhagen
[39] = source organism: Trypanosoma cruzi
[40] = source organism: Human immunodeficiency virus type 1 (CLONE 12)
[41] = source organism: Dengue virus 2 16681-PDK53
[42] = source organism: Dengue virus 4 Philippines/H241/1956
[43] = source organism: Sudan ebolavirus
[44] = source organism: Dengue virus 3 China/80-2/1980

Sequence: AEMMAPSMF
Kd [1, 29]: 0.0172 µM

Sequence: ALPHIIDEV
Kd [2, 30]: 0.179 µM
Kd [3, 30]: 0.013 µM
Kd [4, 30]: 0.00034 µM
Kd [5, 30]: 0.066 µM

Sequence: ANGSLFTEQ
IC50 [6, 29]: ≥ 104 µM

Sequence: ASLTPKAQR
IC50 ([6]; source organism: Variola virus): 0.29 µM
IC50 ([7]; source organism: Variola virus): 2.32 µM

Sequence: DQEKKILMN
IC50 [6, 31]: ≥ 193 µM
IC50 [7, 31]: ≥ 386 µM
IC50 [8, 31]: ≥ 303 µM

Kd ([2]; source organism: Homo sapiens): 0.916 µM
Sequence: ELDSNLYRI

Sequence: ESHNQTFLI
Kd [2, 32]: 0.00351 µM

Sequence: ETILELTDAL
Kd [2, 32]: 0.134 µM
Kd [9, 32]: 0.277 µM

Sequence: ETPNLAERV
Kd ([2]; source organism: Dengue virus 1 Singapore/S275/1990): 0.0248 µM

Sequence: EYPPWLTEK
IC50 [6, 31]: ≥ 123 µM
IC50 [8, 31]: 9.58 µM

Sequence: FPYSIPATLL
Kd [10, 33]: 0.325 µM
Kd [11, 33]: 0.131 µM
Kd [12, 33]: 0.00997 µM
Kd [13, 33]: 0.028 µM

Sequence: FSPGTSGSPI
Kd [10, 32]: 12.8 µM
Kd [2, 32]: 0.294 µM

Sequence: FTQQALSSF
Kd [1, 29]: 0.00643 µM

Sequence: GIYIEGLMH
IC50 [14, 31]: ≥ 180 µM
IC50 [6, 31]: 9.23 µM
IC50 [7, 31]: 16.1 µM

Sequence: GKRSNTTGK
IC50 [14, 31]: ≥ 14300 µM
IC50 [7, 31]: 52.6 µM

Sequence: GTAKLRWFV
Kd [2, 34]: 0.0307 µM

Sequence: HHQINYHGF
Kd [15]: 0.965 µM

Sequence: HSFEEMYRH
IC50 [6, 31]: 3.29 µM
IC50 [7, 31]: 49.4 µM

Sequence: IAIGIITLY
Kd [16]: 2.68 µM
Kd [9, 33]: 0.013 µM
Kd [17, 33]: 0.00362 µM

Sequence: IGIGILLTW
Kd [17, 34]: 0.272 µM
Kd [12, 34]: 5.45 µM

Sequence: IKGTSGTEK
IC50 [7, 35]: ≥ 187 µM

Sequence: IKVLVEHGF
Kd [18, 29]: ≥ 77.7 µM
Kd [19, 29]: 9.69 µM
Kd [1, 29]: 0.473 µM
Kd [20, 29]: 11.3 µM
Kd [21, 29]: 5.93 µM

Sequence: ILAADLEKL
Kd [2, 36]: 4.29 µM
Kd [3, 36]: 0.0323 µM
Kd [4, 36]: 0.02 µM
Kd [5, 36]: 0.195 µM

Sequence: ILMGLDKGW
Kd [17, 34]: 0.049 µM

Sequence: IPTVMAFHL
Kd [10, 37]: 5.51 µM
Kd [12, 37]: 0.0489 µM
Kd [13, 37]: 0.596 µM

Sequence: IQTMDGQEL
Kd [1, 29]: 0.144 µM

Sequence: IQYDRRSFF
Kd [1, 38]: 0.000154 µM

Sequence: ISTYPGNTF
Kd [1, 29]: 0.000479 µM

Sequence: ITGGRRTRR
IC50 [14, 31]: ≥ 177 µM
IC50 [6, 31]: 9.09 µM
IC50 [7, 31]: 6.85 µM

Sequence: IVYSLVTTI
Kd [18, 29]: 13.6 µM
Kd [19, 29]: 0.542 µM
Kd [1, 29]: 1.86 µM
Kd [20, 29]: 0.0036 µM
Kd [21, 29]: 0.016 µM

Kd ([2]; source organism: Homo sapiens): ≥ 60 µM
Sequence: KLLEGEESRI

Sequence: KSISKSNAK
Kd [22]: ≥ 33.9 µM
Kd [23]: 0.101 µM
Kd [24]: 0.000454 µM
IC50 [6, 38]: 1.68 µM
IC50 [7, 38]: 3.02 µM

Sequence: LGFLNEDHW
Kd ([17]; source organism: Murray valley encephalitis virus (strain MVE-1-51)): 0.172 µM

Sequence: LKSNADWFF
Kd [1, 38]: 0.0102 µM

Sequence: LLGLWGFAAQ
Kd [2, 39]: 1.82 µM
Kd [25, 39]: 1.1 µM
Kd [3, 39]: 1.24 µM
Kd [4, 39]: 0.394 µM
Kd [5, 39]: 0.462 µM

Sequence: LRYLLFGIK
IC50 [14, 35]: ≥ 825 µM
IC50 [6, 35]: ≥ 128 µM
IC50 [7, 35]: 15.4 µM
IC50 [8, 35]: 13.6 µM

Sequence: LTSRDGEPRM
Kd [17, 33]: 1.32 µM
Kd [21, 33]: 10.9 µM

Sequence: MAVGLVSILA
Kd [2, 33]: 0.00323 µM

Sequence: MLMFIFTGI
Kd [18, 29]: 0.265 µM
Kd [19, 29]: 1.41 µM
Kd [1, 29]: 1.01 µM
Kd [20, 29]: 1.45 µM
Kd [21, 29]: 0.281 µM

Sequence: MVHQIFGSAY
Kd [16]: ≥ 61.9 µM
Kd [19, 33]: 0.0372 µM
Kd [9, 33]: 0.0116 µM
Kd [11, 33]: 0.018 µM

Sequence: NISGQSPAR
IC50 [6, 31]: 47.6 µM

Sequence: PLTFGWCYKL
Kd [2, 40]: ≥ 20.1 µM
Kd [25, 40]: 6.85 µM
Kd [3, 40]: ≥ 29.4 µM
Kd [4, 40]: 19.3 µM
Kd [5, 40]: 13.2 µM

Sequence: PNRSTKGGQ
IC50 [6, 31]: 46.5 µM

Sequence: QPENLEYTIV
Kd [10, 41]: ≥ 69.6 µM
Kd [13, 41]: 4.62 µM

Sequence: RAYMATTIL
Kd [1, 29]: 0.0175 µM

Sequence: RIKGMSYTM
Kd [19, 42]: 0.0322 µM
Kd [20, 42]: 0.0374 µM

Sequence: RISDRATRK
IC50 [6, 43]: 0.651 µM
IC50 [7, 43]: 1.86 µM

Sequence: RKISSKNSM
Kd [1, 29]: 0.000114 µM

Sequence: RKVKSYNYM
Kd [1, 29]: 0.00258 µM

Sequence: RLHSNTILK
Kd [18, 29]: ≥ 38.6 µM
Kd [19, 29]: 2.22 µM
Kd [1, 29]: 8.54 µM
Kd [20, 29]: 6.35 µM
Kd [21, 29]: 0.0485 µM

Sequence: RPAVGGKTV
Kd [26]: ≥ 20 µM

Sequence: RPGYHTQTAG
Kd [13, 32]: 0.0021 µM

Sequence: RPINEKEENM
Kd [11, 44]: 1.83 µM
Kd [13, 44]: 0.222 µM

Sequence: RPLSEKEENM
Kd [11, 42]: ≥ 30.1 µM
Kd [13, 42]: 2.03 µM

Sequence: SLNSIFNTF
Kd [18, 38]: ≥ 30.6 µM
Kd [19, 38]: 0.00222 µM
Kd [1, 38]: 0.209 µM
Kd [20, 38]: 0.0138 µM

Sequence: SLSHDFTLV
Kd [2, 39]: 0.6 µM
Kd [25, 39]: 0.0126 µM
Kd [3, 39]: 0.000305 µM
Kd [4, 39]: 0.00165 µM
Kd [5, 39]: 0.00774 µM

Sequence: STHKLSLTK
IC50 ([14]; source organism: Variola virus): ≥ 255 µM
IC50 ([6]; source organism: Variola virus): 0.193 µM
IC50 ([7]; source organism: Variola virus): 2.93 µM

Sequence: STLPETTVVRR
Kd ([13]; source organism: Hepatitis B virus subtype adw2): ≥ 35 µM

Sequence: TAYEKLWYI
Kd [27]: 0.13 µM
Kd [28]: 0.65 µM

Sequence: TPPGSRDPF
Kd [11, 32]: 0.16 µM
Kd [13, 32]: 9.88 µM

Sequence: TSVGKLVHQV
Kd [2, 34]: 0.0371 µM

Sequence: TTANWLWAL
Kd [2, 42]: 0.00636 µM
Kd [9, 42]: 3.08 µM
Kd [5, 42]: 0.00593 µM

Sequence: TTIAVSMANI
Kd [2, 32]: 0.00387 µM
Kd [9, 32]: 3.51 µM

Kd ([2]; source organism: Homo sapiens): ≥ 60 µM
Kd ([25]; source organism: Homo sapiens): 0.0957 µM
Kd ([3]; source organism: Homo sapiens): 0.018 µM
Kd ([4]; source organism: Homo sapiens): 0.0948 µM
Sequence: VLQRNCAAYL

Sequence: VPSIKSGNDI
Kd [10, 34]: ≥ 22 µM
Kd [12, 34]: ≥ 47.6 µM
Kd [13, 34]: 1.37 µM

Sequence: VRKNFTSSF
Kd [1, 29]: 0.192 µM

Sequence: VSYNDYFNV
IC50 [14, 35]: 0.743 µM
IC50 [6, 35]: 14.3 µM
IC50 [8, 35]: ≥ 77.1 µM

Sequence: WLSLLVPFV
Kd ([13]; source organism: Hepatitis B virus): ≥ 35 µM

Sequence: YAFSKYMSF
Kd [19, 29]: 0.00899 µM
Kd [1, 29]: 0.00177 µM

Sequence: YKTLCDMIK
IC50 [6, 35]: ≥ 230 µM

Sequence: YKVASAGISY
Kd [19, 42]: 0.00296 µM
Kd [11, 42]: 0.0704 µM
